Assay results from the DeepSol protein solubility set.

Assay: soluble on expression in E. coli; label from the status in PepcDB or PDB records

Sequence | soluble on expression in E. coli
MPSADVLIIGSGIAALRVAKEICHEKNVIIITKETNRNNNTHLAQGGIAAAVATYDNPNDHFEDTLVAGCRYNNEDVVRYLVEEGPKEMKNLIENGMQFDGDETGPHLGKEGAHRKRRILHAGGDATGKNLLEHFIQEVVPHVTVVEQEMVLDFIIESEKCVGVLTRNSEGKLKRYDADYTVLASGGVGGLYAFTSNDKTITGDGLAMVYRAGGELVDLEFVQFHPTMLYAGGQCCGLVSEAVRGEGAVLINGKGQRFMMDIHDDYDLAPRDVVARAIHEQLLSGEKVYLNIGSIQNFQERFPTVSALCKKNGVDITKKRIPVVPGAHFHMGGVKTNIDGETSIPNLYAVGEVACNGVHGANRLASNSLLEGLVFGKRIGQHILTKATKDKLNDFAEKEKKFIVLNHLPTKEEIQECMMKYVGIVRTEQSLSYAKRWLSKYGVRNMILQHDALTNEEITLINMLTVCELIVVSALQREESIGGHYRSDYPHRNSAQKEIIRVKRKLQLV | not soluble
MSLSKYAVSYVYKTFADIGSYAWAKKQIEVLASKGVINGTSDTTFTPQADITRADFMILLVKALGLTAEVTSNFDDVSEKDYYYEYVGIAKELGITTGVGNNKFNPKAKITRQDMMVLTTNALRIAGKISSTGTRADVERFSDKDQIASYAVEGVATLVKEGIVVGSGDIINPRGNASRAELAAIIYKIYYKEGHHHHHH | soluble
MSPRRSAAEAQATRGRILGRAAEIASEEGLDGITIGRLAEELEMSKSGVHKHFGTKETLQISTLDKAFVDFWHRVVEPALAEPPGLRRLRAVCANSVGYLEEPLLPGGCLLTAALSEYDGRPGRVRDAVAEVWSRWREQLRADLTAAVDKGELPAGFDVEQALFEIVAAGLALNAAMQLQHDRTAADRARRAIERALAQS | soluble
MEVVLHEGDAKDWVYKGEGAANLILSYTGSSPSMLGKVLRVKKILKDKGQPAPNCIVFSSHEEHLWGKIPGLLESVKNDCLPQAYATIVMSQHLGANHVDGGVRVRVSKNFFELAGKNVLDNRPAWRVNASAIDAGADSALLISDHTLFSGNPRGSSCIAVEIKAKCGFLPSSEYISKENSIKKQVTRYKMHQHLKFHLGEISKTSEYDPLDLFSGSKERIHMAIKSFFSTPQNNFRIFVDGSLVFGGMGGGADSVHPNETEKCLEDLSKVTGLQLSDFIELLSEAIFKSGVLGKLLATQKLDDHDIEGAIHLYYNIISQPCLVCKSITDTELLRKYSTLHSLPLDKSEKIVRDFLISATAKDCSLMISFRPRQSGTTDSEYDSVFLDSVNQSYDYKAYFIDLDVKPLDKMVLLPSRENV | soluble
TITEWSVNMYNHLRGTGEDENILFSPLSIALAMGMMELGA | soluble
MTMQLIGKKSFPRKANRGAKTRNPSIYWNYRQFICSSSSGYPIPMNFSDEFDFDEDRVYEMLCSDDENTTDYSDEIIAIIDANMRSLWIFQL | not soluble
MIPQIQTLQRLMKATKAARHTKMVNNLDMPFLASRLFVVPHMLASTKLDIILNALAPRLFAGEKFPIEAYSQGNTEAFRPPETYVVQNNIAIIPVHGTLVRRSAWLGALSGLTSYEGLRASFREAIAQPDVNAVLLDIDSGGGEAGGIFDLVEEFQTLSKQYAKPIWAHANEFACSAAYAIACAASQIWIARTGVVGSIGVVCAHLDQSLADEKQGLKWTFVFEGDHKTHGNSHEPLSDTAQIKMQADCALLYEMFVDWVAKNRPLSADAIRDTKAETFIGIQALELGLADAQGTLAQALEALTDSISQTPTATKEGQNTWHAHNTAPKKMMMKKLSTSSTKTKRTKTRATLMKTSTKTKMRTKINRKA | not soluble
MGSDKIHHHHHHMKLISVKRIWEQGAHNAFTDLIRFQGALFCVFREGTAHVSPDGALRILRSADLGDTWQSVALIRSDEADLRDGKLIEYQGELLLLGGGTLHDKSGLQSHLWRSLDGLVWSDALKIGDKGYWLWRLTEYQNALYGVGYRAGPDGDTRLYKSDDGVQFETWLMVFNNQGYVNESAIVFDQDNGFCLLRRDPVWGPEYVGLLGCSQAPFIDWQWQELDKRIGGPVMLMYQSRLLAVVRLYDEQVRTALVEIHPDTGVVQELLTLPSKGDTSYAGVVIDGNELWVSYYSSHEIANAQLDAQNVQNESSISTQAKTMIYFAKIQLVGEF | not soluble
MAHHHHHHMSIFGVSSYFLWTQKGQTVLPLVRGSGFVMSFQQLNTFYSYHVMSAAHVTCPVKHRKLYGDTIGLKAIGERHISTRLLIPDEATHRVQSSFELEFRQQYMPNTDVASLRLCKEEQFKKAMLPPQDSGTGTASPLQVILPDLDRIEEGDELILCGVHTEEERANPNDDGLVLNPMRLIATCKAALLSLDYGTVLLASIDGPAEEARESGSGSAASASRPVTVPPLPLSMCGGPVLRRSSGRCVGVIAARVMANAPPRDPQSTSLYQDPYLDISEHIALHAHWPLDVAFVPIGEFYDPLRRCEM | not soluble
VTAEIRLYITEGEVEDYRVFLERLEQSGLEWRPATPEDADAVIVLAGLWGTRRDEILGAVDLARKSSKPIITVRPYGLENVPPELEAVSSEVVGWNPHCIRDALEDALDVI | soluble
NLSSEYVKDIYAYLRQLEAAQAVRPKYLLGREVTGNMRAILIDWLVQVQMKFRLLQETMYMTVSIIDRFMQNNSVPKKMLQLVGVTAMFIASKYEEMYPPEIGDFAFVTDNTYTKHQIRQMEMKILRALNFGLGRPLPLHFLRRASKIGEVDVEQHTLAKYLMELTMLDYDMVHFPPSQIAAGAFSLALKILDNGEWTPTLQHYLSYTEESLLPVMQHLAKNVVMVNQGLTKHMTVKNKYATSKHAKISTLPQLNSALVQDLAKAVAKV | soluble
MGSDKIHHHHHHMSIAAEKISSEALFDLLEIFDNQPWMRDLHAELAELWNACETREEQHLLKFLLKKFFLLDAQKEKLALYGISKKIQEWGLNPASTWIVAAANKDEIDGSSAGLQKLKNKINPIEEWHSRFISNIPSASNKVKSGDTIILFDDFIGTGGKMIKKTAWLKRLVTKFDPRNLKFYYVSFSGMQFGLTSLAAETACTTYAHFIFTKAISEALPEQEALTLISAMKSIEERLAVRHKNKQLNDYSLGYEKSEALYCGQNDNCPNNVFPVFWWPSMKNGNNRKTLLKRAG | not soluble
MEKSYMKHELWGDGDFQEDDVWDVLDGYQSPFMISSNHTTKPSFSTQTLLPSEPRMIPERQRTEGMAPMRQQSVPVNVPDWSMVQRKKTKKVVDDENVSPEEYFLRRSRSSSSSSVMEGVGRKLKGRDLSKVRNAILKQTGFLE | soluble
MIRISDAAQAHFAKLLANQEEGTQIRVFVINPGTPNAECGVSYCPPDAVEATDTALKFDLLTAYVDELSAPYLEDAEIDFVTDQLGSQLTLKAPNAKMRKVADDAPLMERVEYMLQSQINPQLAGHGGRVSLMEITEDGYAILQFGGGCNGCSMVDVTLKEGIEKQLLNEFPELKGVRDLTEHQRGEHSYY | soluble
MSFPLIFERSRKGRRGLKLVKAVPKAEDLIPKEHLREVPPRLPEVDELTLVRHYTGLSRRQVGVDTTFYPLGSCTMKYNPKLHEEAARLFADLHPYQDPRTAQGALRLMWELGEYLKALTGMDAITLEPAAGAHGELTGILIIRAYHEDRGEGRTRRVVLVPDSAHGSNPATASMAGYQVREIPSGPEGEVDLEALKRELGPHVAALMLTNPNTLGLFERRILEISRLCKEAGVQLYYDGANLNAIMGWARPGDMGFDVVHLNLHKTFTVPHGGGGPGSGPVGVKAHLAPYLPVPLVERGEEGFYLDFDRPKSIGRVRSFYGNFLALVRAWAYIRTLGLEGLKKAAALAVLNARYLKELLKEKGYRVPYDGPSMHEFVAQPPEGFRALDLAKGLLELGFHPPTVYFPLIVKEALMVEPTETEAKETLEAFAEAMGALLKKPKEWLENAPYSTPVRRLDELRANKHPKLTYFDEG | soluble
MKEIDIIQQIKLGEVSKVQFKERLLDNYDIGCELVAFSNARGGTLVVGAVDKTGNINPLSYLEVQETTNTLSNIASENVVPAILVDVETISVDGGSLVVAHIKEGLNKPYHDNRGIVWVKNGADKRKVFDNAELAEMMTDCGSFSPDEAGVRDATIKDLDEGTIKTFLSNKFDKVLARKGLVGDAFREASLDTVCSAIASGHNGEKLLRNLRFIRPDGKITVAAMLLFGKYTQRWLPMMTAKCICFVGNNLGGTQFRDKVNDADIEGNLLHQFETIMDFFTRNLRHIQVGNEFNSQGVLEIPYTSLVEFTVNALVHRSLNATAPIRIFIFDDRVEIHSPGILPNGLTVDDIVIGTSMPRNMFLFTNAIHLLPYTGAGSGMLRALSEDVNVSFTNNDRTNEFVITINRQISNQPNADSDTDLDTDSDTFNADSDTKLRYSDTDLDTDSDTFNADSDTIRPKITNKQRDIVNFCSVPRSSKEILERVGVTYHSKNIQTYIMSLIEAGYLEMTNPEHPNASNQKYRRSKKLEHHHHHH | soluble
MGSDKIHHHHHHMNQFHLTEDQQDCLQELINIAMGQASDQLARYLDTFVYLKVPSIESVEAKDLMKTLSQQKNTVAVVSQGFFGYEGIRGEALLVYKEENSGRIADLLGYEPDELSQDEQLIDISSILTTTFLNVFAQQINNQLSYNAPKLLPNVQEILSEHLQQMPFTWDLALKVNINYQVTDYSFNCNMILLIPETAITNIKHVLDRILEEF | not soluble
RRFEPLLLLPIGFGGLLSNIPEAGLAMTALDHLLHYAHTEQLTIIAEKVNSSSLDVHTIKQAIAFAPPSVQNELEVIASDLGYNAG | not soluble
MGRKEMLQNGVQQVFYEEEWYPPISEAVKNLTVEQACWQPEGAASNTIWENVNHLLIFKERLLSRLHEDDTFVAPQNNDETFIQGGPNDDAAWQQTVKRTLQVHDALQSSLTALQEAELDQLSPSLPVWQQYMNILLHDAYHTGQIIQLRKLQGSWPTHRSYL | not soluble
MSLQDIKDITLRQFGTGVSNLNEVAQKVKEDLGFTLTMTALDSDAVTQRAATQPDSFDIADIEYWICKKVWPTGNLQAMDTSKIKNYDKIVGIFRSGKLTPESTIAQGTAPHTVGFTSGPGGTDFVQEESGWMTLIPTIYNADTLGIRPDLIGRPIESWTELLNPEFKGKASILDISSIGIMDAAMVCEAMGEITYGDKGNMTREEIDRTMAIFTEAKKAGQFRAFWKTFDESVNLMASGEVVIQSMWSPAITAVKSRGIPCVYQPLREGYRSWGGGIGLSARLDGLALEAAYEYINWYLSGWVGGFLMRQGYYSAVPETSKEFMSENEWGYWFEGKPATDTITNPQGQAMAQAGEVRDGGSFEERMGRVACWNSVMDENQYMVRKWNEFIAAEGHHHHHH | not soluble
MSLQLRLALNQIDSTVGDIAGNAEAILRWTRHSAEQGAHLVAFPEMALTGYPVEDLALRSSFVEASRTALRELAARLAEEGFGELPVLVGYLDRSESAQPKYGQPAGAPRNAAAVLHRGRVALTFAKHHLPNYGVFDEFRYFVPGDTMPIVRLHGVDIALAICEDLWQDGGRVPAARSAGAGLLLSVNASPYERDKDDTRLELVRKRAQEAGCTTAYLAMIGGQDELVFDGDSIVVDRDGEVVARAPQFSEGCVVLDLDLPAAEAEPPTGVVDDGLRIDRLVISEEPLPAYEAELAGGYADRLDADEEVYSALVVGLRAYVAKNGFRSVLIGLSGGIDSALVAAIACDALGAQNVYGVSMPSKYSSDHSKGDAAELARRTGLNFRTVSIEPMFDAYMASLGLTGLAEENLQSRLRGTTLMAISNQEGHIVLAPGNKSELAVGYSTLYGDSVGAYGPIKDVYKTSIFRLAEWRNRAAAERGQTPPIPEASITKPPSAELRPGQVDTDSLPDYPVLDAILELYVDRDTGADAIVAAGYDRELVVKTLRMVDTAEYKRRQYPPGTKISAKGFGKDRRLPITNRWREGHHHHHH | soluble
VLRSKSLCHDEIENLLDSDHRELIGDYSKAFLLQTVDGKHQDLKYISPETMVALLTGKFSNIVDKFVIVDCRYPYEYEGGHIKTAVNLPLERDAESFLLKSPIAPCSLDKRVILIFHCEFSSERGPRMCRFIRERDRAVNDYPSLYYPEMYILKGGYKEFFPQHPNFCEPQDYRPMNHEAFKDELKTFRLKTRSWAGERSRRELCSRLQDQ | soluble
